The IC50 is the concentration that inhibits the measured activity by half.

This passage reports IC50 results from patent publication US20190381088, “ANTI-IL-17 APTAMER HAVING IMPROVED RETENTION IN BLOOD” (ZENYAKU KOGYO CO., LTD., published 2019).

Series [1] addresses T1, IL-17 (human IL-17) (Homo sapiens, UniProt Q16552 Q16552:24-155).
T1 sequence: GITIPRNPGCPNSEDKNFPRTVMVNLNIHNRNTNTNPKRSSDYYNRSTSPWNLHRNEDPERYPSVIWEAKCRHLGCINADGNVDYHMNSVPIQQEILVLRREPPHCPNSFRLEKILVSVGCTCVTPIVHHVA
Nature of the series: cell_activity; inhibition of IL-17 (10 ng/mL) + mouse TNF induced IL-6 in NIH3T3 cells, 37 C preincubation 30 min. The following applies: chain copies: 2 inferred (homodimer). As for the experimental part:
(§1) Human IL-17 (10 ng/mL) and aptamers diluted to various concentrations were pre-incubated at 37° C. for 30 min, and added to NIH3T3 cells (ATCC, CRL1658, 1.25×10⁵ cell/mL) together with mouse TNF (2 ng/mL). Then, after incubation for 24 hr, the culture supernatant was collected. After preservation at −70° C., the amount of produced IL-6 was measured by the ELISA method. The IL-17 inhibitory action of each aptamer was evaluated from the amount of produced IL-6.
A microtiter plate for ELISA was coated with rat anti-mouse IL-6 antibody (BD Biosciences, 2 μg/mL; 100 μL/well) diluted with PBS, and incubated at 4° C. overnight. The next day, the microtiter plate was washed 3 times with PBS/0.05% Tween 20, and blocked with PBS/1% BSA (200 μL/well) at room temperature for 2 hr. Then, the plate was washed 3 times with PBS/0.05% Tween 20. Recombinant mouse IL-6 (BD Biosciences; 100 μL/well) serially diluted with PBS/1% BSA/0.05% Tween 20 or culture supernatants (100 μL/well) were added to the plate. After incubation at room temperature for 2 hr, the plate was washed 3 times with PBS/0.05% Tween 20. Then, 100 μL/well of biotin conjugated rat anti-mouse IL-6 antibody (BD Biosciences) was added at final dilution of 1/500, and the mixture was reacted at room temperature for 1 hr. After washing 3 times with PBS/0.05% Tween 20, 100 μL/well of alkaline phosphatase conjugated streptavidin was added at final dilution of 1/1000. After 30 min at room temperature, the plate was again washed 4 times with PBS/0.05% Tween 20, and a substrate (1-Step PNPP; Thermo Fisher Scientific Inc; 100 μL/well) was added. After 15 min, aqueous sodium hydroxide solution (2N: 50 μL/well) was added to stop the reaction, and the plate was read on a microtiter reader (Bio-Rad) by using a 405 nm filter.

Series [2] deals with T1, IL-17 (human IL-17). In words: cell_activity; nucleic acid alone; IL-6 release from NIH3T3 cells. The following applies: chain copies: 2 inferred (homodimer). As for the experimental part: Aptamers in which a brancher, a spacer, an ssH amino linker were added to the nucleic acid sequences of Example sequences 1, 2, 3 and 4, and 40 kDa 2 branched PEG was added (total PEG molecular weight: 80 kDa each) were synthesized (FIG. 1 structure 1). The IL-17 neutralization activity of each aptamer was measured along with the aptamer having the original nucleic acid sequence alone. The evaluation was based on the measurement of the amount of IL-6 released in the cultured cells by the stimulation of IL-17 and TNFα to the cells.
as §1
A microtiter plate for ELISA was coated with rat anti-mouse IL-6 antibody (BD Biosciences, 2 μg/mL; 100 μL/well) diluted with PBS, and incubated at 4° C. overnight. The next day, the microtiter plate was washed 3 times with PBS/0.05% Tween 20, and blocked with PBS/1% BSA (200 μL/well) at room temperature for 2 hr. Then, the plate was washed 3 times with PBS/0.05% Tween 20. […]

B1: Example sequence 1 (aptamer No. 8) PEG-linker-spacer-brancher (mixed)
mixed: GGGUAGCCGGAGGAGTCAGTAAUCGGUACCC
modifications: 2'-OMe at 1-4,7,8,10,13,14,23-26,28; 2'-F at 11,17,18,27; PS at g6; DNA at A5,G9,T16,T20,C29-C31; rest 2'-OH RNA; 3' idT (stated for in vivo tests); 5' symmetrical brancher with spacer + ssH amino linker + 2 x 40 kDa branched PEG (80 kDa total)
Regarding B1, in the series with IL-17 (human IL-17) [1], the IC50 came to 0.041 nM.

B2: Example sequence 2 (aptamer No. 48) PEG-linker-spacer-brancher (mixed)
mixed: GGGUAGCCGGAGGAGTCAGTAAUCGGUACCC
modifications: 2'-OMe at 1-4,7,8,10,13,14,23-26,28; 2'-F at 17,27; DNA at A5,G9,T16,T20,C29-C31; rest 2'-OH RNA; 3' idT (stated for in vivo tests); 5' symmetrical brancher with spacer + ssH amino linker + 2 x 40 kDa branched PEG (80 kDa total)
For the molecule B2, the IC50 with IL-17 (human IL-17) [1] was 0.18 nM.

B3: Example sequence 4 (aptamer No. 93) nucleic acid alone (mixed)
mixed: GGGUAGCCGGAGGAGTCAGTAAUCGGUACCC
modifications: 2'-OMe at 1-4,7,8,10,13,14,23-26,28-31; 2'-F at 11,17,18,27; PS at g6; DNA at A5,G9,T16,T20; rest 2'-OH RNA; no PEG
B3 showed an IC50 with IL-17 (human IL-17) [2] of 0.123 nM.

B4: Example sequence 4 (aptamer No. 93) PEG-linker-spacer-brancher (mixed)
mixed: GGGUAGCCGGAGGAGTCAGTAAUCGGUACCC
modifications: 2'-OMe at 1-4,7,8,10,13,14,23-26,28-31; 2'-F at 11,17,18,27; PS at g6; DNA at A5,G9,T16,T20; rest 2'-OH RNA; 3' idT (stated for in vivo tests); 5' symmetrical brancher with spacer + ssH amino linker + 2 x 40 kDa branched PEG (80 kDa total)
In the case of B4, in the series with IL-17 (human IL-17) [1], the IC50 was 0.06 nM.

B5: Example sequence 1 (aptamer No. 8) nucleic acid alone (mixed)
mixed: GGGUAGCCGGAGGAGTCAGTAAUCGGUACCC
modifications: 2'-OMe at 1-4,7,8,10,13,14,23-26,28; 2'-F at 11,17,18,27; PS at g6; DNA at A5,G9,T16,T20,C29-C31; rest 2'-OH RNA; no PEG
Molecule B5 returned an IC50 with IL-17 (human IL-17) [2] of 0.223 nM.
